This is an account of results in US20100129347A1, “HERPES VIRUS INFECTION INHIBITOR, METHOD FOR INHIBITING INFECTION WITH HERPES VIRUS, AND USE THEREOF” (Osaka University, priority 2007, published 2010).

This assay has as its system HSV-1. Nature of the assay: HSV-1-GFP infection of CHO-K1 cells transfected with human PILR, ratio of infected cells by flow cytometry. The format is cell-based. The conditions noted are these: various concentrations, FIG. 3. The procedure:
CHO-K1 cells were transiently transfected in a 10% FCS-containing F-12 culture medium using Lipofectamine 2000 (produced by Invitrogen) or GeneJuice (produced by Novagen). 1 day after the transfection, the 10% FCS-containing F-12 culture medium was replaced with a 1% FCS-containing F-12 culture medium. 2 days after the transfection, the transfectant was mixed with HSV-GFP and centrifuged at 32° C. at 2500 rpm for 2 hours. Thus, the transfectant was infected with HSV-GFP.
Human PILR was transiently transfected to the CHO-K1 cells by using pMx-IRES-DsRed expression vector, and the CHO-K1 cells were caused to be infected with HSV-1 by using HSV-1-GFP in the presence of anti-human PILR mAb with various concentrations or control mAb. The ratio of HSV-1-infected cells was analyzed by flow cytometry.
The CHO-K1 cells to which PILR had been transfected were caused to be infected with HSV-1 in the presence of PILR-Ig with various concentrations or Ig-fused protein without PILR that was a control. The ratio of the infected cells was analyzed by flow cytometry. Since PILR-Ig directly binds to gB of HSV-1, it is considered that there is a possibility that PILR-Ig blocks interaction between HSV-1 and PILR on the surface of a cell.

B1: control Ig-fused protein: Ig-fused protein without PILR used as control; purified human CD200-Ig fusion protein (protein)
chain: QVQVVTQDEREQLYTPASLKCSLQNAQEALIVTWQKKKAVSPENMVTFSENHGVVIQPAYKDKINITQLGLQNSTITFWNITLEDEGCYMCLFNTFGFGKISGTACLTVYVQPIVSLHYKFSEDHLNITCSATARPAPMVFWKVPRSGIENSTVTLSHPNGTTSVTSILHIKDPKNQVGKEVICQVLHLGTVTDFKQTVNKG
modifications: left off: a dimerising Fc or GST
For the molecule B1, the “blocking of HSV-1 infection of PILR-transfected CHO-K1 cells” value is given as “not blocked”.
